From publication doi:10.1101/2020.06.24.169607 (bioRxiv, 2020)

Target: the molecule itself
Experiment: differential scanning calorimetry

B1: PSD95-PDZ3 wild type (third PDZ domain of postsynaptic density-95 protein) (domain or fragment)
chain: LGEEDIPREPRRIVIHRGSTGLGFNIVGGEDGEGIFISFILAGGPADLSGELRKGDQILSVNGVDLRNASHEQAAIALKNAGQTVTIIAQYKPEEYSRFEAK
  stoichiometry N: 6
